The text below walks through data of patent US20110098212A1 (LONDON SCHOOL OF HYGIENE AND TROPICAL MEDICINE, published 2011).

In assay [1] the target is T1, chemokine receptor CCR6 (human, UniProt P51684 1-374).
T1 sequence (looked up): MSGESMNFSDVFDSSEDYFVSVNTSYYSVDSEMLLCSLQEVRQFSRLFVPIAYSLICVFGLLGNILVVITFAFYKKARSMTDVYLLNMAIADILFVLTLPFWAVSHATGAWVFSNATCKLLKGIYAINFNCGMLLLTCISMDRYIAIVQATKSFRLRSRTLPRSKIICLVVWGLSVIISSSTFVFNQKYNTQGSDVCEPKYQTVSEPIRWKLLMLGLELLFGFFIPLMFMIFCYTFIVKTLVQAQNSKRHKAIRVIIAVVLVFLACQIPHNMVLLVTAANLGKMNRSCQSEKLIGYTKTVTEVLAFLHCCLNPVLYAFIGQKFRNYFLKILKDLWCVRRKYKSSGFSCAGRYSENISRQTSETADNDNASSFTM
In words: cell-based or functional assay.

The target of assay [2] is T2, chemokine receptor CCR1 (human, UniProt P32246 1-355).
T2 sequence (looked up): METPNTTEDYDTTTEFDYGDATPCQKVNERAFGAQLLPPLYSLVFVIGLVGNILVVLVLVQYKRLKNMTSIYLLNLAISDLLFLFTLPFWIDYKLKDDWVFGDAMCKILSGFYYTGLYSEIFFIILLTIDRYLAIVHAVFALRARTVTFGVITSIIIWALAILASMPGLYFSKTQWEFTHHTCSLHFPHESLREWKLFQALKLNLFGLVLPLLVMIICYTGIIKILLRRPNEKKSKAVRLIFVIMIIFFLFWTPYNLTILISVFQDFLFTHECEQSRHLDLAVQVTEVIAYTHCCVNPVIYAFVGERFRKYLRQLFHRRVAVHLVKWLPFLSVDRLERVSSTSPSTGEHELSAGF
In words: cell-based or functional assay.

Assay [3] addresses chemokine receptor CCR8 (human, UniProt P51685 1-355). The experiment in a line: cell-based or functional assay.
Assay [4] addresses T3, chemokine receptor CCR4 (human, UniProt P51679 1-360).
T3 sequence (looked up): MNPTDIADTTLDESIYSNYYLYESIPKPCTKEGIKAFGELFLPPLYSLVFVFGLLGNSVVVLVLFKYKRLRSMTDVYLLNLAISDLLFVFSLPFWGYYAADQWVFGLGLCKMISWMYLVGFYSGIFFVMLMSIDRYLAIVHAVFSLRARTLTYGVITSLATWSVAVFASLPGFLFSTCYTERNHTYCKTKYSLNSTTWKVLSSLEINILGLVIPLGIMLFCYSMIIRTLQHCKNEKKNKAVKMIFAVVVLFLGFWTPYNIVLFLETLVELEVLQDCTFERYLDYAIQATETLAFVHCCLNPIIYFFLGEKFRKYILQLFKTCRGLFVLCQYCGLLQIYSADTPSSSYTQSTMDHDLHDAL
The experiment in a line: cell-based or functional assay.

For assay [5], the target named is human chemokine receptor CCR5 (human, UniProt P51681 1-352).
human chemokine receptor CCR5, sequence (P51681 whole entry): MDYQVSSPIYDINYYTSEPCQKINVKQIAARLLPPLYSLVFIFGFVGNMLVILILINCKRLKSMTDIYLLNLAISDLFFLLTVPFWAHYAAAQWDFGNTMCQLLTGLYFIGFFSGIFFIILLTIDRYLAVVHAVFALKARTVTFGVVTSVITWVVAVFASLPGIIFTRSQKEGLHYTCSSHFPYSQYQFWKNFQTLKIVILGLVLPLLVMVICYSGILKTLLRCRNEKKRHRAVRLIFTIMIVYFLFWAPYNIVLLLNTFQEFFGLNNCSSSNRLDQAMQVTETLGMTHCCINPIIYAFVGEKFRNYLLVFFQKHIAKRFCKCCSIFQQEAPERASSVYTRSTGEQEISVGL

B1: HHV-6 U83A, native full length mature chemokine (ligand)
chain: FICSSPDAELFSEKSRMSSSVLLGCLLCCMDWSAAVPGKTEPFRKLFDAIMIKKLKSCSAAYPSDLEQGSMCDMADASPTSLELGLSKLDKES
In general, IC50 refers to the concentration that inhibits the measured activity by half. On to B1, for which, in assay [1], the “EC50, calcium mobilisation in CCR6-CHO cells” value is 10.3 nM; the “calcium mobilisation at 10 nM U83A, percent of the response to endogenous ligand” value was found to be 35%; the “calcium mobilisation at 100 nM U83A, percent of the response to endogenous ligand” value stood at 80%; the “minimal effective dose, calcium mobilisation” value was found to be 7.5 nM. Besides, in assay [2], the “EC50, calcium mobilisation in CCR1-CHO cells” value came to 9.17 nM; the “calcium mobilisation at 10 nM U83A, percent of the response to endogenous ligand” value was determined as 60%; the “minimal effective dose, calcium mobilisation” value was found to be 7.5 nM. In assay [3], the “EC50, calcium mobilisation in CCR8-CHO cells” value amounted to 6.42 nM; the “calcium mobilisation at 10 nM U83A, percent of the response to endogenous ligand” value came out at 65%; the “calcium mobilisation at 100 nM U83A, percent of the response to endogenous ligand” value was 85%. Moreover, in assay [4], the “EC50, calcium mobilisation in CCR4-CHO cells” value was 8.96 nM; the “calcium mobilisation at 10 nM U83A, percent of the response to endogenous ligand” value came out at 50%; the “calcium mobilisation at 100 nM U83A, percent of the response to endogenous ligand” value is 84%; the “minimal effective dose, calcium mobilisation” value amounted to 7.5 nM. This molecule registered an IC50 in assay [5] of 0.11 nM.

B2: CCL3/MIP-1alpha (ligand, human, UniProt P10147 27-92, looked up)
chain: ADTPTACCFSYTSRQIPQNFIADYFETSSQCSKPGVIFLTKRSRQVCADPSEEWVQKYVSDLELSA
As to B2, the “EC50, calcium mobilisation in CCR1-CHO cells” value in assay [2] is 2.75 nM.
